The target of this experiment is SARS-CoV-2 Wuhan spike receptor-binding domain (RBD), His-tagged (SARS-CoV-2) (UniProt P0DTC2). Briefly: ELISA.

“WTL_3H, wild-type-like tri-helical ACE2 fragment (from UniProt Q9BYF1 18-805) (domain or fragment)” gave a concentration for a half-maximal effect (EC50) of 253 nM and a dissociation constant (Kd) of 192 nM.
